T1: monkey CD22 protein (ACROBiosystems, catalog number SI2-R52Ha) (monkey, UniProt F6W485 20-688)
T1 construct: commercial protein; also called monkey CD22-ECD; monkey CD22-ECD-His
T1 sequence: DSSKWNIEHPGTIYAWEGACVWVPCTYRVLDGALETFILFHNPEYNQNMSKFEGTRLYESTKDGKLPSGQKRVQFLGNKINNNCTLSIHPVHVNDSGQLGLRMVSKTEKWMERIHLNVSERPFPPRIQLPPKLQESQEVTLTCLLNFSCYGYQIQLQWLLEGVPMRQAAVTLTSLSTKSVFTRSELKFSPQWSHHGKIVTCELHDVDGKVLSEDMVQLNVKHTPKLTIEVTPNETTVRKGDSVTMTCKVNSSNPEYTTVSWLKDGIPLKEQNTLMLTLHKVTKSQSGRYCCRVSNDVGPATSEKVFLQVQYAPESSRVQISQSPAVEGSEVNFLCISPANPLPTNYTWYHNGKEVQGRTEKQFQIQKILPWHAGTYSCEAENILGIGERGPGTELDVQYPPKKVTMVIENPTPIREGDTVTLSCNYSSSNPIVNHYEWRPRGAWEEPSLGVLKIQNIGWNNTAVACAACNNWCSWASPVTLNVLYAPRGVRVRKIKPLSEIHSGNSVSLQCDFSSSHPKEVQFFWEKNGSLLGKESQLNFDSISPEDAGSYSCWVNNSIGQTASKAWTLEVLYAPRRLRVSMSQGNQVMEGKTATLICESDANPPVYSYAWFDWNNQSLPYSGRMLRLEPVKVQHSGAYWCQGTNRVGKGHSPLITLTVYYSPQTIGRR

B1: F1.120.15 (antibody, human IgG1, kappa, V domains shown)
VH: QVQLQQSGPELVKPGASVKISCKASGNAFSNSWMNWVKQRPGKGLEWIGRVYSEDGDTQYNGKFRDKATLTADRSTSTAYMQLSSLTSEDSAVYFCARWLIYYGTYGAMDYWGQGTSVTVSS
VL: DIQMTQTTSSLSASLGDRVTISCRASQDINNYLNWYHQKPDGTVKLLIYFTSRPYSGVPSRFSGSGSGTDYSLTISNLEQEDIATYFCQQGNTLPWTFGGGTKLEIKR
notes: human-murine chimeric IgG1 kappa
B2: F1.216.2 (antibody, human IgG1, kappa, V domains shown)
VH: QVQLQQSGPEVVRPGASVKISCKASGYAFSSSWMNWMKQRPGKALEWIGRIYPGDGDTNYSGEFKVKATLTADKSSSTAYMQLSSLTSEDSAVYFCAREGSYYSNPWYFDYWGQGTTLTVSS
VL: DVLVTQTPLSLPVSLGDQASISCRSSQSIVQSNGDTYLEWYLQKPGQSPKLLIYKVSNRFSGVPDRFSGSGSGTDFTLKISRVEAEDLGVYYCFQGSHVPFTFGSGTKLEIKR
notes: as for B1
B3: F1.200.11 (antibody, human IgG1, kappa, V domains shown)
VH: QNQLVQSGPELKKPGETVKISCKASGYTFTTAGMQWVQKMPGKGFKWIGWINTLSGEPKYAEDFKGRFAFSLETSATTAYLQISNLKNEDTATYFCARAYYSNLYWYFDVWGTGTTVTVSS
VL: DIVMTQSQKFMSTTVGDRVTITCKASQNVVTAVAWYQQKPGQSPKVLIYSASNRYSGVPDRFTGSGSGTDFTLTISNMHSEDLANYFCHQYSSYPFTFGSGTKLEIKR
notes: as for B1
B4: F1.60.9 (antibody, human IgG1, kappa, V domains shown)
VH: QVQLKESGPGLVAPSQSLSITCTVSGLSLNNYGVSWVRQPPGKGLEWLGVIWGDGSTNYHSALISRLSISKDNSKSQVFLKLNSLHTDDTATYYCAINWGDYWGQGTTLIVSS
VL: DIKMTQSPSSMNASLGERVTITCKASQDINSYLSWFQQKPGKSPKILIYRANRLIDGVPSRFSGSGSGQDYSLTISSLEYEDMGIYYCLQYGVFPLTFGAGTKLELKR
notes: as for B1
B5: F1.192.1 (antibody, human IgG1, kappa, V domains shown)
VH: AVQLQQSGVELVRPGASVKLSCTGSDFNIKEDYIHWVKQRPEQGLEWIGWIDPENGDTEYASKFQGKATITADTSSNTAYLQLSSLTSEDTAVYYCATYGSLDYWGQGTTLTVSS
VL: DIKMTQSPSSMYAFLGERVTITCKASQGINSFLTWFQQKPGKSPKTLIYRANRLVDGVPSRFSGSGSGQDYSLTISSLEYEDVGIYYCLQYDEFPRTFGGGTKLEIKR
notes: as for B1
B6: F1.172.13 (antibody, human IgG1, kappa, V domains shown)
VH: QVTLKESGPGILQSSQTLSLTCSFSGFSLSTSGMGVSWIRQPSGKGLEWLAHIYWDDDKRYNPSLKSRLTISKDTSRNQVFLKITSVDTADTATYYCARAPPPNWDEYYFDYWGQGTTLTVSS
VL: DIQMTQSPASLSASVGETVTITCRASGNIHNSLAWYQQKQGKSPQLLVHNAKTLADGVPSRFSGSGSGTQYSLKINSLQPEDFGSYYCQHFWSTPPFGGGTKLEIKR
notes: as for B1
B7: F1.17.1 (antibody, human IgG1, kappa, V domains shown)
VH: QVQLKESGPGLVAPSQSLSITCTVSGFSLSRYTVHWVRQPPGKGLEWLGMIWGGGSTDYNSALKSRLSISKDNSKSQVFLKMNSLQTDDTAMYYCARPHDFDAGGFAYWGQGTLVTVSA
VL: QIVLTQSPAILSTSPGEKVTMTCSASSRVNYMYWYQQKPGSSPRLLIYDTSNLASGVPVRFSGSGSGTSYSLTISRMEAEDAATYYCQQWTSYPLTFGAGTKLELKR
notes: as for B1
B8: F1.245.2 (antibody, human IgG1, kappa, V domains shown)
VH: EVQLQQSGAELVKPGASVKLSCTGSGFNIKDYYIHWVKQRTEQGLEWMGRIDPEDGETEYAPKFQDEATITSDTSSNTAYLQLSSLTYEDTAVYYCAREAAGYFYRGSSYGYFDVWGTGTTVTVSS
VL: DFQMTQTTSFLSASLGDRVTISCSASQDISNYLNWYQQKPDGTVKLLIYYTSSLHSGVPSRFSGSGSGTDYSLTISNLEPEDIATYYCQQYSMLPYTFGGGTKLEMER
notes: as for B1

In one test the target is T1, monkey CD22 protein (ACROBiosystems, …). As to the kind of experiment: ELISA, coated monkey CD22 protein, antibody 0.00001 nM. In short, it runs like this: (§1)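 Plates were coated overnight at 4° C with 2 μg/mL CD22 protein in PBS and blocked with PBS + 2% BSA. Chimeric antibodies were incubated for 2 h at 37° C, then HRP-labelled secondary for 2 h at 37° C. Bound antibody was read by TMB colour development (30 min, RT) stopped with 1.0 N HCl.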
Background: In an ELISA, binding on a coated surface is turned into a signal by an enzyme label.
Regarding B1, the OD450 is 0.06 OD450.
The same measure, in the same setting: the same measure for B2: 0.09 OD450; for B3: 0.06 OD450.
The same measure, in the same setting: under B4 stands 0.06 OD450; under B5, 0.07 OD450; under B6, 0.09 OD450.
In the case of B7, the OD450 worked out at 0.07 OD450.
With B8, the OD450 was found to be 0.06 OD450.

For the next test the target is unchanged. The test is described as follows: ELISA, coated monkey CD22 protein, antibody 0.001 nM. In short, it runs like this: as §1
The molecule B1 displayed an OD450 of 0.16 OD450.
For B2, the OD450 turned out to be 0.91 OD450.
On the same count and under the same terms, the same measure for B3: 0.08 OD450.
The same measure, in the same setting: the same measure for B4: 0.05 OD450; for B5: 0.07 OD450.
As for B6, the OD450 was found to be 0.82 OD450.
On the same count and under the same terms, the same measure for B7: 0.51 OD450.
Still for that read-out and setting: under B8 stands 0.06 OD450.

For the next test the target is unchanged. The test is described as follows: ELISA, coated monkey CD22 protein, antibody 0.1 nM. In outline:
as §1
Consider B1, for which the OD450 is 1.56 OD450.
As for B2, the OD450 came out at 2.24 OD450.
Still for that read-out and setting: the same measure for B3: 0.62 OD450.
The same measure, in the same setting: the same measure for B4: 0.06 OD450; for B5: 0.53 OD450.
On the same count and under the same terms, under B6 stands 2.78 OD450; under B7, 1.99 OD450; under B8, 0.06 OD450.

Another test addresses T2, CD22 on cynomolgus monkey peripheral blood B cells (cynomolgus monkey (Macaca fascicularis)).
T2 construct: whole, on cells; also called cynomolgus monkey B cells
The test is described as follows: FACS, cynomolgus PBMC, CD20+ B cells, antibody 100 nM. In outline: (§2)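 PBMC from cynomolgus blood, Ficoll separation. Indirect staining: chimeric Ab + BV605 anti-CD20 1 h RT, then APC anti-hIgG Fc 30 min RT in dark. Gated CD20+; % Ab+ cells reported.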
On the technique in general: A flow cytometer gives signals particle by particle.
As for B1, the “Proportion of chimeric antibody positive cells to B cells (%)” value (shortened to “Proportion … (%)”) was determined as 93%.
On the same count and under the same terms, under B2 stands 34%; under B3, 56%; under B4, 18%.
The same measure, in the same setting: under B5 stands 38%; under B6, 34%; under B7, 68%.
Still for that read-out and setting: under B8 stands 17%.

For a further test, the target named is T2, CD22 on cynomolgus monkey peripheral …. The test is described as follows: FACS, cynomolgus PBMC, CD20+ B cells, antibody 1 nM. In outline:
as §2
Take B1: the “Proportion … (%)” value was found to be 27%.
The same measure, in the same setting: under B2 stands 22%; under B3, 21%.
Still for that read-out and setting: the same measure for B4: 16%; for B5: 22%.
Same read-out and setting: the same measure for B6: 30%; for B7: 60%; for B8: 16%.

The next test addresses T1, monkey CD22 protein (ACROBiosystems, …). The test is described as follows: ELISA, coated monkey CD22 protein, antibody 0.0001 nM. In outline: as §1
In turn, B1 yielded an OD450 of 0.07 OD450.
On the same count and under the same terms, under B2 stands 0.21 OD450; under B3, 0.06 OD450.
Still for that read-out and setting: under B4 stands 0.06 OD450; under B5, 0.07 OD450; under B6, 0.18 OD450.
B7: the OD450 amounted to 0.13 OD450.
Same read-out and setting: under B8 stands 0.06 OD450.

A further test concerns the target T2, CD22 on cynomolgus monkey peripheral …. The test is described as follows: FACS, cynomolgus PBMC, CD20+ B cells, antibody 10 nM. In outline: as §2
Turning to B1, the “Proportion … (%)” value stood at 86%.
Same read-out and setting: the same measure for B2: 25%.
The same measure, in the same setting: under B3 stands 37%.
Still for that read-out and setting: the same measure for B4: 16%; for B5: 30%; for B6: 31%.
In the case of B7, the “Proportion … (%)” value was 62%.
The same measure, in the same setting: the same measure for B8: 17%.

The next test concerns the target T1, monkey CD22 protein (ACROBiosystems, …). As to the kind of experiment: ELISA, coated monkey CD22 protein, antibody 100 nM. In outline:
as §1
For the molecule B1, the OD450 was found to be 1.64 OD450.
For B2, the OD450 stood at 1.94 OD450.
B3 had an OD450 of 1.25 OD450.
Same read-out and setting: the same measure for B4: 0.09 OD450; for B5: 1.21 OD450; for B6: 3.21 OD450.
For B7, the OD450 turned out to be 1.91 OD450.
Still for that read-out and setting: the same measure for B8: 0.08 OD450.

Another test shares this target. The test is described as follows: ELISA, coated monkey CD22 protein, antibody 10 nM. In outline: as §1
Take B1: the OD450 is 1.9 OD450.
On the same count and under the same terms, under B2 stands 2.15 OD450; under B3, 1.23 OD450.
Turning to B4, the OD450 was 0.07 OD450.
On the same count and under the same terms, the same measure for B5: 0.84 OD450.
In the case of B6, the OD450 stood at 2.93 OD450.
Still for that read-out and setting: under B7 stands 2.16 OD450.
Same read-out and setting: the same measure for B8: 0.06 OD450.

For another test the target is unchanged. As to the kind of experiment: ELISA, coated monkey CD22 protein, antibody 0.01 nM. In outline: as §1
On to B1, for which the OD450 amounted to 0.65 OD450.
The same measure, in the same setting: under B2 stands 2.04 OD450; under B3, 0.19 OD450.
B4 displayed an OD450 of 0.05 OD450.
For B5, the OD450 amounted to 0.19 OD450.
Same read-out and setting: the same measure for B6: 2.47 OD450.
Take B7: the OD450 was found to be 1.75 OD450.
Same read-out and setting: under B8 stands 0.06 OD450.
